Assay results taken from patent US20260241049A1, “Radiopharmaceutical Compositions Targeting Glypican-3 and Uses Thereof” (RayzeBio, Inc., priority 2023, published 2026).
Starred links: 1 amine or outer side, 2 acyl side, 3 side chain; linkers in the order of their positions; H or OH if unused. Positions of bridges follow the written chain, without caps; N, C: chain ends. Non-standard residues stand in square brackets, D forms with d. Primed or numbered codes have the meaning given here. *: point of attachment. MeKCOpipzaa″ = (2S)-6-{[4-(carboxymethyl)piperazine-1-carbonyl]amino}-2-(methylamino)hexanoic acid, CN([C@@H](CCCCNC(=O)N1CCN(CC(=O)[*:3])CC1)C(=O)[*:2])[*:1]; DOTA‑Lu = DOTA-lutetium(175) amide on the side-chain amine, O=C([O-])CN1CCN(CC(=O)[O-])CCN(CC(=O)*)CCN(CC(=O)[O-])CC1.[175Lu+3]; MeHseMe″ = (2S)-4-methoxy-2-(methylamino)butanoic acid (N-methyl-O-methyl-L-homoserine), COCC[C@@H](C(=O)[*:2])N(C)[*:1]; F4aao = 4-(carboxymethoxy)-L-phenylalanine, O=C([C@H](Cc1ccc(OCC(=O)[*:3])cc1)N[*:1])[*:2]; F4aao(4) = 4-(carboxymethoxy)phenylalanine, O=C([C@H](Cc1ccc(OCC(=O)[*:3])cc1)N[*:1])[*:2]; MeHseMe(5) = N-methyl-O-methyl-homoserine, COCC[C@@H](C(=O)[*:2])N(C)[*:1]; MeHseMe = N-methyl-O-methyl-L-homoserine, COCC[C@@H](C(=O)[*:2])N(C)[*:1]; Thr(Me)(3) = TMe, O-methyl-L-threonine, CO[C@H](C)[C@H](N[*:1])C(=O)[*:2]; TMe = O-methyl-L-threonine, CO[C@H](C)[C@H](N[*:1])C(=O)[*:2]; TMe″ = O-methyl-threonine, CO[C@H](C)[C@H](N[*:1])C(=O)[*:2]; NMeAla(isoquinolin-7-yl) = CN[C@@H](Cc1ccc2ccncc2c1)C(=O)O; 3Pal(6-Ph) = N[C@@H](Cc1ccc(-c2ccccc2)nc1)C(=O)O; Phe(4-COOH) = N[C@@H](Cc1ccc(C(=O)O)cc1)C(=O)O; NMeI = CC[C@H](C)[C@H](NC)C(=O)O; NMeQ = CN[C@@H](CCC(N)=O)C(=O)O; NMeK = CN[C@@H](CCCCN)C(=O)O; NMeC = CN[C@@H](CS)C(=O)O

B1: Macrocyclic peptide of Example 2-60 (SEQ ID No. 62) (peptide)
peptide: {CH2CO}-[NMeK][NMeI]D[NMeQ][Phe(4-COOH)][TMe]IY[NMeAla(isoquinolin-7-yl)]G[3Pal(6-Ph)][NMeC]-NH2
modifications: thioether N-12
SMILES: CC[C@H](C)[C@@H]1NC(=O)[C@H]([C@@H](C)OC)NC(=O)[C@H](Cc2ccc(C(=O)O)cc2)NC(=O)[C@H](CCC(N)=O)N(C)C(=O)[C@H](CC(=O)O)NC(=O)[C@H]([C@@H](C)CC)N(C)C(=O)[C@H](CCCCN)N(C)C(=O)CSC[C@@H](C(N)=O)N(C)C(=O)[C@H](Cc2ccc(-c3ccccc3)nc2)NC(=O)CNC(=O)[C@H](Cc2ccc3ccncc3c2)N(C)C(=O)[C@H](Cc2ccc(O)cc2)NC1=O
B2: Macrocyclic peptide of Example 2-57 (SEQ ID No. 1) (peptide)
peptide: {CH2CO}-[NMeK][NMeI]D[NMeQ][Phe(4-COOH)]IIY[NMeAla(isoquinolin-7-yl)]G[3Pal(6-Ph)][NMeC]-NH2
modifications: thioether N-12
SMILES: CC[C@H](C)[C@@H]1NC(=O)[C@H](Cc2ccc(C(=O)O)cc2)NC(=O)[C@H](CCC(N)=O)N(C)C(=O)[C@H](CC(=O)O)NC(=O)[C@H]([C@@H](C)CC)N(C)C(=O)[C@H](CCCCN)N(C)C(=O)CSC[C@@H](C(N)=O)N(C)C(=O)[C@H](Cc2ccc(-c3ccccc3)nc2)NC(=O)CNC(=O)[C@H](Cc2ccc3ccncc3c2)N(C)C(=O)[C@H](Cc2ccc(O)cc2)NC(=O)[C@H]([C@@H](C)CC)NC1=O
B3: Macrocyclic peptide of Example B1 (SEQ ID No. 45) (peptide)
peptide: {CH2CO}-[NMeK][MeHseMe″]D[NMeQ][Phe(4-COOH)][TMe]IY[NMeAla(isoquinolin-7-yl)]G[3Pal(6-Ph)][NMeC]-NH2
modifications: thioether N-12
SMILES: CC[C@H](C)[C@@H]1NC(=O)[C@H]([C@@H](C)OC)NC(=O)[C@H](Cc2ccc(C(=O)O)cc2)NC(=O)[C@H](CCC(N)=O)N(C)C(=O)[C@H](CC(=O)O)NC(=O)[C@H](CCOC)N(C)C(=O)[C@H](CCCCN)N(C)C(=O)CSC[C@@H](C(N)=O)N(C)C(=O)[C@H](Cc2ccc(-c3ccccc3)nc2)NC(=O)CNC(=O)[C@H](Cc2ccc3ccncc3c2)N(C)C(=O)[C@H](Cc2ccc(O)cc2)NC1=O
notes: also called macrocyclic peptide 2b
B4: Macrocyclic peptide of Example 2-59 (SEQ ID No. 63) (peptide)
peptide: {CH2CO}-[NMeK][MeHseMe″]D[NMeQ][Phe(4-COOH)][TMe]I[F4aao][NMeAla(isoquinolin-7-yl)]G[3Pal(6-Ph)][NMeC]-NH2
modifications: thioether N-12
SMILES: CC[C@H](C)[C@@H]1NC(=O)[C@H]([C@@H](C)OC)NC(=O)[C@H](Cc2ccc(C(=O)O)cc2)NC(=O)[C@H](CCC(N)=O)N(C)C(=O)[C@H](CC(=O)O)NC(=O)[C@H](CCOC)N(C)C(=O)[C@H](CCCCN)N(C)C(=O)CSC[C@@H](C(N)=O)N(C)C(=O)[C@H](Cc2ccc(-c3ccccc3)nc2)NC(=O)CNC(=O)[C@H](Cc2ccc3ccncc3c2)N(C)C(=O)[C@H](Cc2ccc(OCC(=O)O)cc2)NC1=O
B5: Macrocyclic peptide of Example 2-27 (SEQ ID No. 35) (peptide)
peptide: KQDQFTIFFGXC
modifications: MeK-MeQ-D-MeQ-F4COO-TMe-I-F4aao-MeNal27N-G-3Py6Ph-MeC-NH2; thioether ring from N-terminal acetyl to MeC12
B6: Macrocyclic peptide of Example 2-4 (SEQ ID No. 7) (peptide)
peptide: {CH2CO}-[NMeK](Ac)[NMeI]D[NMeQ][Phe(4-COOH)]IIY[NMeAla(isoquinolin-7-yl)]G[3Pal(6-Ph)][NMeC]-NH2
modifications: thioether N-12
SMILES: CC[C@H](C)[C@@H]1NC(=O)[C@H](Cc2ccc(C(=O)O)cc2)NC(=O)[C@H](CCC(N)=O)N(C)C(=O)[C@H](CC(=O)O)NC(=O)[C@H]([C@@H](C)CC)N(C)C(=O)[C@H](CCCCNC(C)=O)N(C)C(=O)CSC[C@@H](C(N)=O)N(C)C(=O)[C@H](Cc2ccc(-c3ccccc3)nc2)NC(=O)CNC(=O)[C@H](Cc2ccc3ccncc3c2)N(C)C(=O)[C@H](Cc2ccc(O)cc2)NC(=O)[C@H]([C@@H](C)CC)NC1=O
B7: Macrocyclic peptide of Example 2-24 (SEQ ID No. 58) (peptide)
peptide: {CH2CO}-[MeKCOpipzaa″][MeHseMe]D[NMeQ][Phe(4-COOH)][Thr(Me)(3)]IY[NMeAla(isoquinolin-7-yl)]G[3Pal(6-Ph)][NMeC]-NH2
modifications: thioether N-12
SMILES: CC[C@H](C)[C@@H]1NC(=O)[C@H]([C@@H](C)OC)NC(=O)[C@H](Cc2ccc(C(=O)O)cc2)NC(=O)[C@H](CCC(N)=O)N(C)C(=O)[C@H](CC(=O)O)NC(=O)[C@H](CCOC)N(C)C(=O)[C@H](CCCCNC(=O)N2CCN(CC(=O)O)CC2)N(C)C(=O)CSC[C@@H](C(N)=O)N(C)C(=O)[C@H](Cc2ccc(-c3ccccc3)nc2)NC(=O)CNC(=O)[C@H](Cc2ccc3ccncc3c2)N(C)C(=O)[C@H](Cc2ccc(O)cc2)NC1=O
B8: Macrocyclic peptide of Example 10-1 (SEQ ID No. 34) (peptide)
peptide: {CH2CO}-[NMeK](His)[NMeI]D[NMeQ][Phe(4-COOH)]II[F4aao(4)][NMeAla(isoquinolin-7-yl)]G[3Pal(6-Ph)][NMeC]-NH2
modifications: thioether N-12
SMILES: CC[C@H](C)[C@@H]1NC(=O)[C@H](Cc2ccc(C(=O)O)cc2)NC(=O)[C@H](CCC(N)=O)N(C)C(=O)[C@H](CC(=O)O)NC(=O)[C@H]([C@@H](C)CC)N(C)C(=O)[C@H](CCCCNC(=O)[C@@H](N)Cc2c[nH]cn2)N(C)C(=O)CSC[C@@H](C(N)=O)N(C)C(=O)[C@H](Cc2ccc(-c3ccccc3)nc2)NC(=O)CNC(=O)[C@H](Cc2ccc3ccncc3c2)N(C)C(=O)[C@H](Cc2ccc(OCC(=O)O)cc2)NC(=O)[C@H]([C@@H](C)CC)NC1=O
B9: Macrocyclic peptide of Example 10-2 (SEQ ID No. 41) (peptide)
peptide: {CH2CO}-[NMeK](dF)[NMeI]D[NMeQ][Phe(4-COOH)]II[F4aao(4)][NMeAla(isoquinolin-7-yl)]G[3Pal(6-Ph)][NMeC]-NH2
modifications: thioether N-12
SMILES: CC[C@H](C)[C@@H]1NC(=O)[C@H](Cc2ccc(C(=O)O)cc2)NC(=O)[C@H](CCC(N)=O)N(C)C(=O)[C@H](CC(=O)O)NC(=O)[C@H]([C@@H](C)CC)N(C)C(=O)[C@H](CCCCNC(=O)[C@H](N)Cc2ccccc2)N(C)C(=O)CSC[C@@H](C(N)=O)N(C)C(=O)[C@H](Cc2ccc(-c3ccccc3)nc2)NC(=O)CNC(=O)[C@H](Cc2ccc3ccncc3c2)N(C)C(=O)[C@H](Cc2ccc(OCC(=O)O)cc2)NC(=O)[C@H]([C@@H](C)CC)NC1=O

The binders below were run against T1, Human Glypican3-Fc (ACRO Biosystems, GP3-H5258) (human, UniProt P51654 25-559) (assay: SPR (Biacore T200), Method B-3: Glypican3-Fc captured on Protein A chip, peptide as analyte).
T1 construct: Bought fusion protein, captured in Methods B-2, B-3 and B-4; Catalogue number is printed only in Method B-2; not shown: Fc part of the bought fusion
Experimental: A Protein A sensor chip (Cytiva) was inserted into a Biacore T200 (Cytiva), priming was performed three times with a running buffer: HBS-P+, pH 7.4 (Cytiva), and equilibration was carried out at a flow rate of 30 μL/min. Glypican3-Fc was allowed to react for 60 seconds at a flow rate of 10 μL/min. After capturing human Glypican3-Fe, a peptide solution prepared to 10 mM in DMSO solution was diluted with a running buffer to a final concentration of 10 μM. […] Using the above samples, peptide kinetics for Glypican3 was obtained by SPR measurement. Kinetics evaluation of Glypican3 was performed by SPR measurements at a flow rate of 10 LL/min, setting the association time to 120 seconds and the disassociation time to 600 seconds.
The obtained data by Method B-1, Method B-2, Method B-3 and Method B-4 were analyzed by follow. Single Cycle Kinetics was used as the kinetics evaluation model, and curve fitting was performed using Biacore T200 Evaluation Software Version 3.0 (Cytiva).

Binder	Kd
Ac-[NMeK](DOTA‑Lu)[NMeI]D[NMeQ][Phe(4-COOH)][TMe″]IY[NMeAla(isoquinolin-7-yl)]G[3Pal(6-Ph)][NMeC]-NH2 (bridge N-12; not fully specified (bridges); also: DOTA-Lu: cold Lu-175 complex) [Lu-C-62]	0.15 nM
B1	0.23 nM
B2	0.17 nM
B3	0.2 nM
Ac-[NMeK](DOTA‑Lu)[NMeI]D[NMeQ][Phe(4-COOH)]II[F4aao(4)][NMeAla(isoquinolin-7-yl)]G[3Pal(6-Ph)][NMeC]-NH2 (bridge N-12; not fully specified (bridges); also: DOTA-Lu: cold Lu-175 complex) [Lu-C-64]	0.53 nM
B4	1.55 nM
B5	1.1 nM
B6	0.3 nM
B7	0.5 nM
Ac-[NMeK](DOTA‑Lu)[MeHseMe(5)]D[NMeQ][Phe(4-COOH)]IIY[NMeAla(isoquinolin-7-yl)]G[3Pal(6-Ph)][NMeC]-NH2 (bridge N-12; not fully specified (bridges); also: cold Lu-175 chelated by DOTA) [Lu-C-72]	0.36 nM
B8	0.51 nM
B9	0.54 nM
